In publication PMC3790809:
Where “and” joins values, the source holds several entries; their conditions need not be identical. Equal entries are not always repeated.

How the values were obtained:
[1] = target: YsaNΔ(426-430)-His (Yersinia enterocolitica ATCC51871); assay: SPR
[2] = target: YsaNΔ(411-430)-His (Yersinia enterocolitica ATCC51871); assay: SPR
[3] = target: YsaNΔ(1-5)-His (Yersinia enterocolitica ATCC51871); assay: SPR
[4] = target: YsaN-His (full length YsaN, soluble) (Yersinia enterocolitica ATCC51871); assay: SPR
[5] = target: YsaNflr-His (full length YsaN, refolded) (Yersinia enterocolitica ATCC51871); assay: SPR
[6] = target: YsaL-His (YE3555 with N-terminal His tag, refolded) (Yersinia enterocolitica ATCC51871 (serotype O:8, biovar 1B)); assay: cross-linking; refolded YsaL-His (100 µg in 30 µl), 2 µL of 1.5% glutaraldehyde, 25°C, 5 min; 50 mM sodium phosphate pH 8.0, 150 mM NaCl; SDS-PAGE
[7] = target: YsaL-His (YE3555 with N-terminal His tag, refolded) (Yersinia enterocolitica ATCC51871 (serotype O:8, biovar 1B)); assay: SEC
[8] = target: YsaN-His (full length YsaN, YE3544, with N-terminal His tag) (Yersinia enterocolitica ATCC51871 (serotype O:8, biovar 1B)); assay: SEC
[9] = target: YsaN-His (full length YsaN, YE3544, with N-terminal His tag) (Yersinia enterocolitica ATCC51871 (serotype O:8, biovar 1B)); assay: dynamic light scattering; YsaN-His 0.7 mg/ml, 25°C, 25 mM Tris, 300 mM NaCl, 2% glycerol; mass from the hydrodynamic size
[10] = target: YsaN-His (full length YsaN, YE3544, with N-terminal His tag) (Yersinia enterocolitica ATCC51871 (serotype O:8, biovar 1B))
[11] = target: YsaNΔ(411–430)-His (Yersinia enterocolitica ATCC51871 (serotype O:8, biovar 1B)); assay: SPR
[12] = target: YsaNΔ(1–5)-His (Yersinia enterocolitica ATCC51871 (serotype O:8, biovar 1B)); assay: SPR
[13] = target: YsaN-His (full length YsaN, YE3544, with N-terminal His tag) (Yersinia enterocolitica ATCC51871 (serotype O:8, biovar 1B)); assay: SPR
[14] = target: YsaNΔ(426–430)-His (Yersinia enterocolitica ATCC51871 (serotype O:8, biovar 1B)); assay: SPR

With “untagged YsaL (YE3555), refolded (natural protein)” the Ka [1] was 882000 M⁻¹, the Ka [2] was 3.86e+06 M⁻¹ and the Kd [2] was 0.26 µM. It also gave a koff [2] of 0.000132 s⁻¹, a kon [2] of 510 M⁻¹ s⁻¹ and a Ka [3] of 20300 M⁻¹. For the same substance, the Ka [4] was 2.9e+07 M⁻¹, the koff [4] was 0.000119 s⁻¹ and the kon [4] was 3450 M⁻¹ s⁻¹. For the same substance, the Ka [5] was 2.38e+08 M⁻¹, the koff [5] was 1.91e-05 s⁻¹ and the kon [5] was 4540 M⁻¹ s⁻¹.

Work on “YsaL-His (YE3555 with N-terminal His tag, refolded) (natural protein)” yielded a stoichiometry N [6] of 2 and a stoichiometry N [7] of 2.

With “YsaN-His (full length YsaN, YE3544, with N-terminal His tag) (enzyme)” the stoichiometry N [8] was 12 and the percent of sample in the oligomeric form [9] was 90%.

“untagged YsaL (YE3555) (natural protein)” was tested, and the stoichiometry N (YsaL per YsaN) [8] was 2, the inhibition of the ATPase activity of YsaN-His (malachite green assay); untagged YsaL in the soluble co-purified untagged YsaL-YsaN-His complex, highly comparable with YsaL-His added at 2∶1 [10] was 73% and the Kd [11] was 0.1 µM. For the same substance, the Kd [12] was 400 µM, the Kd [13] was 0.035 µM and 0.042 µM and the Kd [14] was 0.1 µM.
